For six molecules, Kd and koff results are on record in article PMC8916728 (2022).

The chains are these.
B6: soluble ectodomain of the HCMV Pentamer (strain Towne) (complex)
chain 1: RYGAEAISEPLDKAFHLLLNTYGRPIRFLRENTTQCTYNSSLRNSTVVRENAISFNFFQSYNQYYVFHMPRCLFAGPLAEQFLNQVDLTETLERYQQRLNTYALVSKDLASYRSFSQQLKAQDSLGEQPTTVPPPIDLSIPHVWMPPQTTPHGWTESHTTSGLHRPHFNQTCILFDGHDLLFSTVTPCLHQGFYLIDELRYVKITLTEDFFVVTVSIDDDTPMLLIFGHLPRVLFKAPYQRDNFILRQTEKHELLVLVKKDQLNRHSYLKDPDFLDAALDFNYLDLSALLRNSFHRYAVDVLKSGRCQMLDRRTVEMAFAYALALFAAARQEEAGAQVSVPRALDRQAALLQIQEFMITCLSQTPPRTTLLLYPTAVDLAKRALWTPNQITDITSLVRLVYILSKQNQQHLIPQWALRQIADFALKLHKTHLASFLSAFARQELYLMGSLVHSMLVHTTERREIFIVETGLCSLAELSHFTQLLAHPHHEYLSDLYTPCSSSGRRDHSLERLTRLFPDATVPTTVPAALSILSTMQPSTLETFPDLFCLPLGESFSALTVSEHVSYVVTNQYLIKGISYPVSTTVVGQSLIITQTDSQTKCELTRNMHTTHSITAALNISLENCAFCQSALLEYDDTQGVINIMYMHDSDDVLFALDPYNEVVVSSPRTHYLMLLKNGTVLEVTDVVVDATDSRL
chain 2: VAVSVAPTAAEKVPAECPELTRRCLLGEVFQGDKYESWLRPLVNVTRRDGPLSQLIRYRPVTPEAANSVLLDDAFLDTLALLYNNPDQLRALLTLLSSDTAPRWMTVMRGYSECGDGSPAVYTCVDDLCRGYDLTRLSYGRSIFTEHVLGFELVPPSLFNVVVAIRNEATRTNRAVRLPVSTAAAPEGITLFYGLYNAVKEFCLRHQLDPPLLRHLDKYYAGLPPELKQTRVNLPAHSRYGPQAVDAR
chain 3: RVPRVRAEECCEFINVNHPPERCYDFKMCNRFTVALRCPDGEVCYSPEKTAEIRGIVTTMTHSLTRQVVHNKLTSCNYNPLYLEADGRIRCGKVNDKAQYLLGAAGSVPYRWINLEYDKITRIVGLDQYLESVKKHKRLDVCRAKMGYMLQ
chain 4: SPWSTLTANQNPSPPWSKLTYSKPHDAATFYCPFLYPSPPRSPLQFSGFQQVSTGPECRNETLYLLYNREGQTLVERSSTWVKKVIWYLSGRNQTILQRMPQTASKPSDGNVQISVEDAKIFGAHMVPKQTKLLRFVVNDGTRYQMCVMKLESWAHVFRDYSVSFQVRLTFTEANNQTYTFCTHPNLIV
chain 5: QCQRETAEKNDYYRVPHYWDACSRALPDQTRYKYVEQLVDLTLNYHYDASHGLDNFDVLKRINVTEVSLLISDFRRQNRRGGTNKRTTFNAAGSLAPHARSLEFSVRLFAN

Assay [1] addresses B6. Description: SPR.
Assay [2] deals with B6. Description: SPR. (In general: In SPR one partner is held on a chip, and binding of the other changes the refractive index at the surface.)
Assay [3] has as its target 1-32–captured Pentamer (HCMV Pentamer bound by 1-32 IgG) (human cytomegalovirus (strain Towne) | …, UniProt P17176 24-718). Description: BLI; Pentamer captured by 1-32 IgG. A general note: Biolayer interferometry detects binding as a change in optical thickness at a sensor tip.
The target in assay [4] is T1, monoFc-tagged NRP2 (human neuropilin 2 a1a2b1b2, residues 23 to 595) (human, UniProt O60462 23-595).
T1 chain: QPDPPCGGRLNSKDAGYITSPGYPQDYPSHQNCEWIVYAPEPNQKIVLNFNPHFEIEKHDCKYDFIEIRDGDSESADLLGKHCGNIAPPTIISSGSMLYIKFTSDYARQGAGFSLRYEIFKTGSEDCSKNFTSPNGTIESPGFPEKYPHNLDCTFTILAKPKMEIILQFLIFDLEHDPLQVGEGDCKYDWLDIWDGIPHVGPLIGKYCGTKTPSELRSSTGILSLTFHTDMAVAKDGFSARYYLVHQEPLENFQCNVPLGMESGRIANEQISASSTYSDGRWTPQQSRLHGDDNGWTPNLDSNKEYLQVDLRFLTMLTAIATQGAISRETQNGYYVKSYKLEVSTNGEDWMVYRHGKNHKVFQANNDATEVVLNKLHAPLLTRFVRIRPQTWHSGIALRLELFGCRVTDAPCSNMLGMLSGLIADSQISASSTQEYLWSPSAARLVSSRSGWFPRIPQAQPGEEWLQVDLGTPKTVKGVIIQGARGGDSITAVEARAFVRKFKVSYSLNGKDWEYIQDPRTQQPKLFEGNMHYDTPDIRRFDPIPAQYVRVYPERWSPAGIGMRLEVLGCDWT
Description: BLI; 2 mM Ca2+.

The target of assay [5] is T2, NRP2 a2b1b2 (human neuropilin 2 residues 145 to 595, monomeric IgG1 Fc tag) (human, UniProt O60462 145-595).
T2 chain: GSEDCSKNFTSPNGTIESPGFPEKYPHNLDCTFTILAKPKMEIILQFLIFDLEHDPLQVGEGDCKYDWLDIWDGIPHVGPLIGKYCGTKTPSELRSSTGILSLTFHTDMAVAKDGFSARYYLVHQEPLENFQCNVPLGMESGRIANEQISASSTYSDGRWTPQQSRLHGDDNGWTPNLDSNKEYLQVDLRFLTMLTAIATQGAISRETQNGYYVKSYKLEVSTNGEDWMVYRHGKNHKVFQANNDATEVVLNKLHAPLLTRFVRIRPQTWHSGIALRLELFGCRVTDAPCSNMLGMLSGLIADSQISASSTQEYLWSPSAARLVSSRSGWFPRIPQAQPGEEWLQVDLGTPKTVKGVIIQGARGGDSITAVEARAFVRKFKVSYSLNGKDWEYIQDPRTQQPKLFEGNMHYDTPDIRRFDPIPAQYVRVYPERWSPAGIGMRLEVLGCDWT
Description: BLI; 2 mM Ca2+.

B1: Fab 1-103 (Fab, V domains shown)
VH: QLQLQESGPGLVKPSETLSLTCSVSGDAISGSNYYWGWIRQPPGKGLQWIGSIYHTGSTFYNPSFSSRVTLSVDTSKNQFSLKLISVNAADTAVYYCARRIRGYSGTYDWGQGTLVTVSS
VL: DIQLTQSPSFLSASVGDRVTITCRASQDISSYVAWYQQKPGNAPKLLISSASTLPSGVPSRFSGSRSGTDFTLTISSLQPEDFATYYCQQLNNFGPGTTVDIK
Usually Kd stands for the free concentration of one partner at which half of the binding sites on the other are occupied at equilibrium, for simple one-to-one binding. B1 registered a Kd in assay [1] of 3.11 nM.

B2: Fab 1-32 (Fab, V domains shown)
VH: QVKLVESGGGVVQPGRSLRLSCAGSGFAFDNYAMHWVRQAPGKGLEWVAVISLEGRNKYYAGPAKGRFSISRDNSRNTVHLQMNSLRPEDTAVYFCARDMRYYYDSNGHYRNRYGMDVWGQGTTVIVSS
VL: DIQMTQSPSSLSASVGDSVTITCQASQDINQFVSWYQQKPGKPPKLLIYDASNLESGVPSRFSGSGSGTHFTFTISSLQPDDIATYYCQQYENLFTFGPGTKVDIK
One may read the koff as the first-order rate constant of dissociation. Higher therefore signals fast dissociation. Molecule B2 returned a koff in assay [2] of 0.000264 s⁻¹. This molecule also gave a Kd in assay [1] of 2.82 nM.

B3: Fab 2-18 (Fab, V domains shown)
VH: EVQLVQSGGGLVQPGGSLRVSCAASGFSFSDHDMDWVRQAPGKGFEWVGRSRNKDYSSTTEYAASVRGRFTISRHTSEDLLYLELNTVKTEDTAVYFCARGPHHSDRSGYYGGTFDIWGQGTMVTVSS
VL: DIQMTQSPSSVSASVGDRVIITCRASQGISSWLAWYQQKPGRAPRLLIYDASTLESGVPSRFSGRGSGTEFTLTINSLQPEDFATYYCQQGNMFPLTFGGGTKVEIK
In assay [1], B3 showed a Kd of 0.0493 nM.

B4: Fab 2-25 (Fab, V domains shown)
VH: QVQLVESGAEVKKPGASVKVSCKASGYTFTNYAIHWVRQAPGQRLEWMGWINAGRGNTKYSQKFQGRVTITRDTSASTAYMELSSLRSEDAAVYFCARDESTGDYYYYMDVWGKGTTVTVSS
VL: SYELTQPPSVSVSPGQTASITCSGDRLDDKYASWYQQKAGQSPVLVIYQDNKRPSGIPERFSGSNSGNTATLTISGTQAMDEADYYCQAWDSDTYVFGTGTKVTVL
In turn, B4 registered a Kd in assay [1] of 1.08 nM.

B5: untagged NRP2 (receptor)
chain: RGQPDPPCGGRLNSKDAGYITSPGYPQDYPSHQNCEWIVYAPEPNQKIVLNFNPHFEIEKHDCKYDFIEIRDGDSESADLLGKHCGNIAPPTIISSGSMLYIKFTSDYARQGAGFSLRYEIFKTGSEDCSKNFTSPNGTIESPGFPEKYPHNLDCTFTILAKPKMEIILQFLIFDLEHDPLQVGEGDCKYDWLDIWDGIPHVGPLIGKYCGTKTPSELRSSTGILSLTFHTDMAVAKDGFSARYYLVHQEPLENFQCNVPLGMESGRIANEQISASSTYSDGRWTPQQSRLHGDDNGWTPNLDSNKEYLQVDLRFLTMLTAIATQGAISRETQNGYYVKSYKLEVSTNGEDWMVYRHGKNHKVFQANNDATEVVLNKLHAPLLTRFVRIRPQTWHSGIALRLELFGCRVTDAPCSNMLGMLSGLIADSQISASSTQEYLWSPSAARLVSSRSGWFPRIPQAQPGEEWLQVDLGTPKTVKGVIIQGARGGDSITAVEARAFVRKFKVSYSLNGKDWEYIQDPRTQQPKLFEGNMHYDTPDIRRFDPIPAQYVRVYPERWSPAGIGMRLEVLGCDWTDSKPTVETLGPTVKSEETTTPYPTEEEATECGENCSFEDDKDLQLPSGFNCNFDFLEEPCGWMYDHAKWLRTTWASSSSPNDRTFPDDRNFLRLQSDSQREGQYARLISPPVHLPRSPVCMEFQYQATGGRGVALQVVREASQESKLLWVIREDQGGEWKHGRIILPSYDMEYQIVFEGVIGKGRSGEIAIDDIRISTDVPLENCMEPISAFAGENFKVDIPEIHEREGYEDEIDDEYEVDWSNSSSATSGSGAPSTDKEKSWLYTLDPILITIIAMSSLGVLLGATCAGLLLYCTCSYSGLSSRSCTTLENYNFELYDGLKHKVKMNHQKCCSEA
B5 returned a koff in assay [3] of 0.00177 s⁻¹. Take B6: the koff in assay [4] is 0.000271 s⁻¹; in assay [5], 0.00104 s⁻¹.
